{"source": "paper PMC7671035", "about": "(mAbs, 2020)", "binders": {"B1": {"name": "1581 (antibody, V domains shown)", "VH": "QVHVKQSGAELVKPGASVRLSCTASGYTFTSYWMHWVKQRPGQGLEWIGNINPNSGSANYNEKFKSKATLTVDTSSSTAYMQLSSLTSEDSAVYYCTREGPYSYYPVRVYYGLDYWGQGTSVTVSS", "VL": "DIVLTQSPATLSVTPGDRVSLSCRASQSISNNLHWYQQKSHESPRLLIKYTSQSVSGIPSRFSASGSGTDFTLSINSVETEDFGMYFCQQSNSWPLTFGAGTKLELK"}, "B2": {"name": "LY3041658 (antibody, V domains shown)", "VH": "QVQLVQSGAEVKKPGASVKVSCKASGYEFTSYWIHWVRQAPGQGLEWMGNISPNSGSANYNEKFKSRVTMTRDTSTSTVYMELSSLRSEDTAVYYCAREGPYSYYPSREYYGSDLWGQGTLVTVSS", "VL": "EIVLTQSPATLSLSPGERATLSCRASQSISNNLHWYQQKPGQAPRLLIYYTSRSVSGIPARFSGSGSGTDFTLTISSLEPEDFAVYYCGQNNEWPEVFGGGTKVEIK"}}, "key": {"human CXCL1": {"molecular_target": "human CXCL1 (Homo sapiens, UniProt P09341)", "sequence (P09341 35-107)": "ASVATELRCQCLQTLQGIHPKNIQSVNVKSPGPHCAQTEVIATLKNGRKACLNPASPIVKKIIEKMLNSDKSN"}, "human CXCL4": {"molecular_target": "human CXCL4 (Homo sapiens (Human)., UniProt P02776)", "sequence (P02776 32-101)": "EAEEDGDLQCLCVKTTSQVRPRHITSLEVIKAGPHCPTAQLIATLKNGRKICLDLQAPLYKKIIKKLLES", "experiment": "ELISA"}, "human CXCL10": {"molecular_target": "human CXCL10 (Homo sapiens (Human)., UniProt P02778)", "sequence (P02778 22-98)": "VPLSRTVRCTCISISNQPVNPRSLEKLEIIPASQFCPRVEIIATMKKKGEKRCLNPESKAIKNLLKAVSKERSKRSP", "experiment": "ELISA"}, "human CXCL12": {"molecular_target": "human CXCL12 (Homo sapiens, UniProt P48061)", "sequence (P48061 22-93)": "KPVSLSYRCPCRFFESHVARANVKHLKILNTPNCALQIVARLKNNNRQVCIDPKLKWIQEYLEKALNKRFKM", "experiment": "ELISA"}, "human CXCL13": {"molecular_target": "human CXCL13 (Homo sapiens (Human)., UniProt O43927)", "sequence (O43927 23-109)": "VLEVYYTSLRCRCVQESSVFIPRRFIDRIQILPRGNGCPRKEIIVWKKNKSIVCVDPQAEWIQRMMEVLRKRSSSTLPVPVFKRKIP", "experiment": "ELISA"}, "human CXCL14": {"molecular_target": "human CXCL14 (Homo sapiens, UniProt O95715)", "sequence (O95715 35-111)": "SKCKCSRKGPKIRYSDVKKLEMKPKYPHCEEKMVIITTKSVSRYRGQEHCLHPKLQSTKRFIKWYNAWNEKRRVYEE", "experiment": "ELISA"}, "human CXCL16": {"molecular_target": "human CXCL16 (Homo sapiens, UniProt Q9H2A7)", "sequence (Q9H2A7 30-254)": "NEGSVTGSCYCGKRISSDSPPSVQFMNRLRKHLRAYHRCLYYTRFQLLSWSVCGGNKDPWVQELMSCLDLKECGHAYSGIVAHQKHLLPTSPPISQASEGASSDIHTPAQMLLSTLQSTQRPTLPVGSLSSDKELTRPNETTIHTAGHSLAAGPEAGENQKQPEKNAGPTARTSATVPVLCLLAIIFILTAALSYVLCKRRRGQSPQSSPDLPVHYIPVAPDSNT", "experiment": "ELISA"}, "human CXCL17": {"molecular_target": "human CXCL17 (Homo sapiens, UniProt Q6UXB2)", "sequence (Q6UXB2 22-119)": "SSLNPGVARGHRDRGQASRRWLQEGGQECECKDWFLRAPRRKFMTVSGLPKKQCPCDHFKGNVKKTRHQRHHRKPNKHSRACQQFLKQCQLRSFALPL", "experiment": "ELISA"}, "mouse CXCL1": {"molecular_target": "mouse CXCL1 (Mus musculus, UniProt P12850)", "sequence (P12850 25-96)": "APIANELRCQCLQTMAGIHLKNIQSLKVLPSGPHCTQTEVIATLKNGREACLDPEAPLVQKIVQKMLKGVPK", "experiment": "SPR"}, "mouse CXCL2": {"molecular_target": "mouse CXCL2 (Mus musculus, UniProt P10889)", "sequence (P10889 28-100)": "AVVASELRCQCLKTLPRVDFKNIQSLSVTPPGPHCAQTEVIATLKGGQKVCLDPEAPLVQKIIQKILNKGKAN", "experiment": "SPR"}, "mouse CXCL3": {"molecular_target": "mouse CXCL3 (Mus musculus, UniProt Q6W5C0)", "sequence (Q6W5C0 32-100)": "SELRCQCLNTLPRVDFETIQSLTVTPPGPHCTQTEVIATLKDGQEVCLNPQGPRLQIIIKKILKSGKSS", "experiment": "SPR"}, "rat CXCL1": {"molecular_target": "rat CXCL1 (Rattus norvegicus, UniProt P14095)", "sequence (P14095 25-96)": "as the sequence (P12850 25-96) above, with I3V, M15V, L20F, L29M, S31P, L58M counted along it", "experiment": "SPR"}, "rat CXCL2": {"molecular_target": "rat CXCL2 (Rattus norvegicus, UniProt P30348)", "sequence (P30348 32-100)": "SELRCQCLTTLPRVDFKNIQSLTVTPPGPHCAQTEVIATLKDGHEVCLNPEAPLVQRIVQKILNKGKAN", "experiment": "SPR"}, "rat CXCL3": {"molecular_target": "rat CXCL3 (Rattus norvegicus, UniProt Q10746)", "sequence (Q10746 33-101)": "as the sequence (Q6W5C0 32-100) above, with S1R, N9K, T18N, G52A, I57K, K60Q, I62L, G66D counted along it", "experiment": "SPR"}}}
{"binder": "B1", "values": [{"measurement": "binding result", "setting": "human CXCL1", "result": "binds"}]}
{"binder": "B2", "values": [{"measurement": "binding result", "setting": "human CXCL4", "result": "no binding (tested: 20 µg/mL)"}, {"measurement": "binding result", "setting": "human CXCL10", "result": "no binding (tested: 20 µg/mL)"}, {"measurement": "binding result", "setting": "human CXCL12", "result": "no binding (tested: 20 µg/mL)"}, {"measurement": "binding result", "setting": "human CXCL13", "result": "no binding (tested: 20 µg/mL)"}, {"measurement": "binding result", "setting": "human CXCL14", "result": "no binding (tested: 20 µg/mL)"}, {"measurement": "binding result", "setting": "human CXCL16", "result": "no binding (tested: 20 µg/mL)"}, {"measurement": "binding result", "setting": "human CXCL17", "result": "no binding (tested: 20 µg/mL)"}, {"measurement": "Kd", "setting": "mouse CXCL1", "result": "~200", "unit": "pM"}, {"measurement": "Kd", "setting": "mouse CXCL2", "result": "~200", "unit": "pM"}, {"measurement": "Kd", "setting": "mouse CXCL3", "result": "~200", "unit": "pM"}, {"measurement": "Kd", "setting": "rat CXCL1", "result": "~200", "unit": "pM"}, {"measurement": "Kd", "setting": "rat CXCL2", "result": "~200", "unit": "pM"}, {"measurement": "Kd", "setting": "rat CXCL3", "result": "~200", "unit": "pM"}]}
